# Test results published in paper PMC6754406, “Ran pathway-independent regulation of mitotic Golgi disassembly by Importin-α” (Nature Communications, 2019).
# Assays:
# [1] = molecular target: p115-CTD (a.a. 780–930); test: Isothermal titration calorimetry (ITC), p115-CTD; settings: ITC (MicroCal iTC200), 25 °C, 20 mM HEPES pH 7.4, 1 mM DTT, 50 mM NaCl; one-sites binding model
# Description: Phosphorylation of GM130 on Ser-25 is correlated with p115 dissociation, with this process appearing to be specific to mitosis and being responsible for reduction of p115-mediated vesicle fusion to Golgi membranes[5]–[7],[9],[10]. The N-terminal region of GM130 and the p115 C-terminus interact[11],[12], so we purified recombinant proteins containing these two regions and then assessed their binding affinity by isothermal titration calorimetry (ITC). The wild type GM130 N-terminal region (a.a. 1-85; hereafter GM130-WT) directly bound p115 (a.a. 780–930; hereafter p115-CTD) (Fig. 1a). Furthermore, we examined if GM130 phosphorylation reduces the binding affinity for p115. […] We found in competition-binding assays that p115-CTD pulldown by GST-GM130-S25D was reduced when we added increasing amounts of Importin-α lacking the IBB domain (a.a. 70–524; hereafter Importin-α(ΔIBB)) (Fig. 1c). […]
# To purify p115 (a.a. 780–930), cells containing p115 (a.a. […]) were resuspended in a buffer containing 50 mM K-phosphate (pH 7.4), 150 mM NaCl, and 2 mM β-mercaptoethanol. […] Fractions containing p115 protein were pooled and loaded into SEC (Superdex 75 16/600) and analyzed by SDS–PAGE. […]
# Binding affinities of different GM130 proteins to Importin-α and Importin-β were measured by ITC (MicroCal iTC200). […] Protein concentrations were determined spectrophotometrically with respective extinction coefficients. […]
# [2] = test system: Importin-β (HEK293T cell lysate); test: GST pulldown of Importin-β from HEK293T cell lysates; assay type: binding
# Procedure: HEK293T cells were lysed in RIPA buffer containing 50 mM Tris, 150 mM NaCl, 1% NP-40, 1% sodium deoxycholate, 0.1% SDS, 1 mM phenylmethyl sulphonyl fluoride, 1 μg/ml aprotinin, and 1 μg/ml leupeptin. Supernatants were collected after centrifugation at 21,000×g for 10 min at 4 °C. Cell lysates were incubated with 5 µM of GST-GM130-WT, GST-GM130-S25D, or GST-GM130-S25D/K34A, and glutathione-coupled sepharose beads (GE Healthcare). After three pre-washes with buffer containing 150 mM NaCl, proteins were eluted using a buffer containing 50 mM of reduced glutathione. Eluted proteins were analyzed by SDS–PAGE, followed by Western blotting using antibodies against GM130 (Abcam ab52649), Importin-α (R&D Systems MAB6207), and Importin-β (Abcam ab2811). Uncropped scans of Western blots are provided in Supplementary Fig. 7.
# Sup ple me ntary Figure 3. GM 130 is resistant to IBB displacement upon in teracting with […]
# a-d, a, SE C (Superdex 200) elution profile for full-length Importin-α•GST-GM130-S25D (re d line ), full-length Importin-α (blue line), an d G ST-GM130-WT (green line). […] Th e v o i d volum e (Vo) is indicated. e, Western blotting analysis of Importin-α pull-down by GST-GM130-WT and GST-GM130-S25D from HEK293T ce l l l ys at es. […] Data repres ent mean ± standard deviation from three independent experiments. […]
molecule,measurement,setting,value
"GM130: GM130 (recombinant N-terminal region), variant not specified at the place (protein) MWPQPRLPPRPAMSEETRQSKLAAAKKKLREYQQRNSPGVPTGAKKKKKIKNGSNPETTTSGGCHSPEDTPKDNAATLQPSDDTVLPGGVPSPGASLTSMAASQNHDADNVPNLMDETKTFSSTESLRQLSQQLNGLVCESATCVNGEGPASSANLKDLESRYQQLAVALDSSYVTNKQLNITIEKLKQQNQEITDQLEEEKKECHQKQGALREQLQVHIQTIGILVSEKAELQTALAHTQHAARQKEGESEDLASRLQYSRRRVGELERALSAVSTQQKKADRYNKELTKERDALRLELYKNTQSNEDLKQEKSELEEKLRVLVTEKAGMQLNLEELQKKLEMTELLLQQFSSRCEAPDANQQLQQAMEERAQLEAHLGQVMESVRQLQMERDKYAENLKGESAMWRQRMQQMSEQVHTLREEKECSMSRVQELETSLAELRNQMAEPPPPEPPAGPSEVEQQLQAEAEHLRKELEGLAGQLQAQVQDNEGLSRLNREQEERLLELERAAELWGEQAEARRQILETMQNDRTTISRALSQNRELKEQLAELQSGFVKLTNENMEITSALQSEQHVKRELGKKLGELQEKLSELKETVELKSQEAQSLQQQRDQYLGHLQQYVAAYQQLTSEKEVLHNQLLLQTQLVDQLQQQEAQGKAVAEMARQELQETQERLEAATQQNQQLRAQLSLMAHPGEGDGLDREEEEDEEEEEEEAVAVPQPMPSIPEDLESREAMVAFFNSAVASAEEEQARLRGQLKEQRVRCRRLAHLLASAQKEPEAAAPAPGTGGDSVCGETHRALQGAMEKLQSRFMELMQEKADLKERVEELEHRCIQLSGETDTIGEYIALYQSQRAVLKERHREKEEYISRLAQDKEEMKVKLLELQELVLRLVGDRNEWHGRFLAAAQNPADEPTSGAPAPQELGAANQQGDLCEVSLAGSVEPAQGEAREGSPRDNPTAQQIMQLLREMQNPRERPGLGSNPCIPFFYRADENDEVKITVI",Kd,[1],~980 nM
same,Importin-α pulled down more than Importin-β,[2],~ 10 -fold
same,Western blot signal of Importin-β reduced compared to Importin-α FL,[2]; same acquisition conditions,more than 10 -fold
